Here are results for two molecules from paper doi:10.1101/2025.08.01.668158.

The target of one series is T1, SpDis3L2 WT (Schizosaccharomyces pombe, UniProt O14040 1-927).
T1 sequence: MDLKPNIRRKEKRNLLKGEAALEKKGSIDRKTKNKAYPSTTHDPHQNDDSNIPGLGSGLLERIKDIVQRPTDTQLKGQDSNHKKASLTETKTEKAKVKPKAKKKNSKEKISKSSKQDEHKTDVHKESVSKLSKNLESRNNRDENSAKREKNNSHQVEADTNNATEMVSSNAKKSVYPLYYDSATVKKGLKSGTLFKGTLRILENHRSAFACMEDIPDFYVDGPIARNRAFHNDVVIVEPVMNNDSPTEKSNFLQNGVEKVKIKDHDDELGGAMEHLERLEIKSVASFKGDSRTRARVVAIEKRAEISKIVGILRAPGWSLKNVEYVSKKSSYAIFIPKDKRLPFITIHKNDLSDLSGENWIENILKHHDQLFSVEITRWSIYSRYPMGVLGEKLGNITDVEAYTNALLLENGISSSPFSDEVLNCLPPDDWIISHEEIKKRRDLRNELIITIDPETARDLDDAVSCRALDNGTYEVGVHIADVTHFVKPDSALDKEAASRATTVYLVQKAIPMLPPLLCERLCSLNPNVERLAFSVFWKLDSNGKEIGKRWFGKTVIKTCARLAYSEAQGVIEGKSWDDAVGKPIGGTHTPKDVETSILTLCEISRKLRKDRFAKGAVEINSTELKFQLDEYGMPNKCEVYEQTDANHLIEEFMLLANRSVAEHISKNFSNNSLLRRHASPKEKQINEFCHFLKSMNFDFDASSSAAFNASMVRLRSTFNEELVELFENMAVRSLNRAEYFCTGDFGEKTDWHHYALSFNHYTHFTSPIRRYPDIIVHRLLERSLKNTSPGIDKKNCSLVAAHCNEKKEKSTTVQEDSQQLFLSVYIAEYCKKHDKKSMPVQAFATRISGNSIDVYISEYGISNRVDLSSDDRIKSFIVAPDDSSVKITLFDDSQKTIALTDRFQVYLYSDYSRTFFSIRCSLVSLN
Put plainly: EMSA. In general terms: Mobility shift assays separate free from complexed probe on a gel.

The target in another series is T2, SpDis3L2 A756R (Schizosaccharomyces pombe, UniProt O14040 1-927, A756R).
T2 sequence: T1 sequence with A756R
Nature of the series: EMSA.

Another series has as its target T3, SpDis3L2(D461N)ΔN168 (Schizosaccharomyces pombe, UniProt O14040 168-927, D461N).
T3 sequence: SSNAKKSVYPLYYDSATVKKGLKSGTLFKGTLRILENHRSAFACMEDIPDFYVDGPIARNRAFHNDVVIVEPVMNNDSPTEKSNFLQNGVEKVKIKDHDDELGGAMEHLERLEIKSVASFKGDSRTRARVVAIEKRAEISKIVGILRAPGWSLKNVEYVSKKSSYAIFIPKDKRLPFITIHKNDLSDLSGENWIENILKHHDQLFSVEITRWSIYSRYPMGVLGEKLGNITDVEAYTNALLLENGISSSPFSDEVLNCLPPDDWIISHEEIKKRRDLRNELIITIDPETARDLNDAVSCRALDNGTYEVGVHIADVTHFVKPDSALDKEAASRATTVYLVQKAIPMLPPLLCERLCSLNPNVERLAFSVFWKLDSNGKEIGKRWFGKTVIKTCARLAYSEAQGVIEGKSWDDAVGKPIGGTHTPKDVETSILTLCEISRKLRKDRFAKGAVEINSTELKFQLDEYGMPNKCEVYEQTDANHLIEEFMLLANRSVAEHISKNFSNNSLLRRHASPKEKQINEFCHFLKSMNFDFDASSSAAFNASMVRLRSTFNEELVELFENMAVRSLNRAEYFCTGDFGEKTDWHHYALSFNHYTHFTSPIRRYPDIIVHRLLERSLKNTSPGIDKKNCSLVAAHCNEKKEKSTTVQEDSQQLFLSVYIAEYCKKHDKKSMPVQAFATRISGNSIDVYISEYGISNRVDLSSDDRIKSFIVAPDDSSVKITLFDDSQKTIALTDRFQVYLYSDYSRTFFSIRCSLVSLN
Put plainly: X-ray crystallography.

Where a chain is given by its changes, count along the chain named.

In the case of GUUUUGUAUAGAAAUCAAUGUUUUUUUUUUUUUUUU (ssRNA) [Adh1-U16], the binding result in the series with SpDis3L2 WT and in the series with SpDis3L2 A756R was “binds” in each case. As for UUUUUUUUUUUUU (ssRNA) [U13], the binding result in the series with SpDis3L2(D461N)ΔN168 is “binds”.
